Experimental data: US12324841B2, “Methods of treating cancer with a combination of an anti-PD-1 antibody and an anti-tissue factor antibody-drug conjugate” (GENMAB A/S, priority 2018, dated 2025)

How the values were obtained:
[1] = system: CD14+ monocyte/macrophages; assay: Monocyte/macrophage activation in PBMCs fed killed MDA-MB-231 cells; assay type: cell-based, human
From the text: FIGS. 7A and 7B is a series of graphs in which Tissue Factor positive MDA-MB-231 cells killed with various agents were fed to human peripheral blood mononuclear cells (PBMCs) and immune activation assessed by increased expression of activations markers on innate CD14+ monocyte/macrophages and induction of chemokine and cytokine production.
Immunogenic cell death, as mediated by MMAE, is regulated cell death that activates adaptive immune responses against antigens from dead and dying tumor cells, and allows for the generation of robust innate immune cell activation and subsequent cytotoxic T cell responses targeted towards specific tumor cell antigens. […] Furthermore, these monocyte/macrophages conditioned by ICD-killed cells promote activation of T cells, as evidenced by production of signature inflammatory cytokines associated with cytotoxic T cell responses.

[2] = system: relapsed, recurrent, and/or metastatic cervical cancer; assay: Phase I/II trial of tisotumab vedotin (NCT02001623); assay type: in vivo, human
From the text: Further investigation of tisotumab vedotin as a monotherapy and in combination with immunotherapy (e.g., an anti-PD-1 antibody) in a larger cohort of patients with cervical cancer is needed.
Three adverse events of special interest were identified during treatment with tisotumab vedotin alone in the Phase IIa trial discussed above: 1) ocular adverse events; 2) adverse events of peripheral neuropathy; and 3) adverse events of bleeding. […] In the present trial, in order to prevent ocular AEs, all subjects in both treatment groups (i.e., tisotumab vedotin alone or in combination with pembrolizumab) must adhere to the following ocular pre-medication guidelines: 1) use of preservative-free lubricating eye drops during the whole treatment phase of the trial (i.e., from first dose of tisotumab vedotin until the safety follow-up visit). Lubricating eye drops should be administered according to the product prescribing information; 2) it is recommended not to wear contact lenses while treated with tisotumab vedotin from the first dose until a safety follow-up visit; 3) use of refrigerator-based eye cooling pads during infusion, e.g. THERA PEARL Eye Mask or similar, to be applied immediately before infusion in accordance with the instructions provided with the eye cooling pads; 4) administration of local ocular vasoconstrictor before infusion (brimonidine tartrate 0.2% eye drops or similar, 3 drops in each eye immediately prior to start of infusion; otherwise to be used in accordance with the product prescribing information). […] Steroid eye drops should be administered as 1 drop in each eye, 3 times daily, for 3 days, or used in accordance with the product prescribing information.
For AEs of peripheral neuropathy (including neuropathy peripheral; peripheral sensory neuropathy; peripheral motor neuropathy; polyneuropathy): Peripheral neuropathy is a well-known adverse reaction to treatment with platinum and taxane based chemotherapies as well as MMAE-based ADCs and is reported in approximately 35% of subjects who received treatment with tisotumab vedotin. […] A mitigation plan, including dose reduction (See Table 4) and dose delays, is in place to control the rates and severity of peripheral neuropathy observed in subjects treated with tisotumab vedotin. For Grade 2 and 3, or initial or worsening of pre-existing condition, hold tisotumab vedotin until event has improved to ≤grade 1 then reduce next dose according to dose reduction shown in Table 4. No action is required to be taken with pembrolizumab. For ≥Grade 4, permanently discontinue tisotumab vedotin. Contact sponsor to discuss continuation of pembrolizumab alone.
For AEs of bleeding: Bleeding events are considered of special interest due to the mode of action of tisotumab vedotin. […] Dose modification and toxicity management guidelines are in place (Table 7).

[3] = compared to IgG1-MMAE ADC or tisotumab alone
[4] = subjects who received tisotumab vedotin

tisotumab vedotin: antibody-drug conjugate comprising an antibody that binds to tissue factor (TF), a protease-cleavable linker, and the microtubule disrupting agent MMAE
chemotactic and inflammatory mediators from monocyte/macrophages after uptake of dead cells [1]: elicit strong chemotactic and inflammatory mediators
monocyte/macrophage activation, CD86 expression by flow cytometry [1, 3]: drove monocyte/macrophage activations
release of innate chemokines including MIP 1β [1, 3]: induced release of innate chemokines including MIP 1β
efficacy ([2]; 2.0 mg/kg tisotumab vedotin): robust efficacy
safety profile ([2]; 2.0 mg/kg tisotumab vedotin): manageable safety profile
bleeding events: epistaxis, frequency ([2]; in vivo): most common reported AE
bleeding events: epistaxis, grade ([2]; in vivo): nearly all of the cases are grade 1
clinically relevant perturbations in aPTT or prothrombin time (PT) ([2]; in vivo): have not been observed
peripheral neuropathy as cause of permanent discontinuation [2, 4]: leading cause of permanently discontinuation
peripheral neuropathy, grade of reported cases [2, 4]: majority of the reported cases are grade 1-2
peripheral neuropathy, share of subjects [2, 4]: approximately 35%
ocular AEs: grade 1-2 conjunctivitis ([2]; tisotumab vedotin alone): frequently reported
